The values that follow come from the RNAGym collection of RNA variant scans (doi:10.7554/elife.80360).

To fix the notation:
B1: Twister Ribozyme (parent)
chain: AACACUGCCAAUGCCGGUCCCAAGCCCGGAUAAAAGUGGAGGGGGCGG

Variants of B1 are the subject of the data set. Nature of the data set: self-cleavage, relative activity (ratio to wild type); higher = more cleavage; co-transcriptional.
For the variant A1G C26A, the self-cleavage was found to be 0.244.
Turning to C25G G41C, the self-cleavage worked out at 0.133.
Consider C21A A23G, for which the self-cleavage was 0.0801.
With G17A C27G, the self-cleavage turned out to be 0.243.
For the variant G7C A40U, the self-cleavage was found to be 0.0764.
G28U C46U: the self-cleavage came out at 0.922.
Turning to A11G G41A, the self-cleavage turned out to be 0.505.
C5G U12C: the self-cleavage stood at 0.896.
Under G7U G39C stands 0.0429; under A10G C21G, 0.0634.
In the case of A23C G47U, the self-cleavage was determined as 0.145.
In the case of G28C G47U, the self-cleavage stood at 0.378.
For C3A A22U, the self-cleavage is 0.127.
As to C9A A23G, the self-cleavage amounted to 0.055.
On to G41C G44U, for which the self-cleavage was found to be 0.147.
For the variant A30G G39A, the self-cleavage came out at 0.582.
As to A11U C26A, the self-cleavage is 0.674.
Consider A4U A11G, for which the self-cleavage amounted to 0.184.
For G24U G41A, the self-cleavage was determined as 0.0908.
Under G13U G48C stands 0.456.
For the variant A2G G36C, the self-cleavage was found to be 0.105.
For the variant C21U G41U, the self-cleavage was determined as 0.136.
On to G44U, for which the self-cleavage is 0.974.
As for A30C U37A, the self-cleavage came to 0.231.
Regarding A10U U37G, the self-cleavage was 0.602.
Under A11U G45U stands 0.953; under C46U G48U, 1.01; under A4U G38U, 0.138.
Take G42U G45A: the self-cleavage turned out to be 0.294.
As to G42U G45U, the self-cleavage turned out to be 0.191.
A11C U31A: the self-cleavage was determined as 0.502.
Consider C27G A33C, for which the self-cleavage was determined as 0.0584.
With C14A C15G, the self-cleavage is 0.31.
Consider A23G G42C, for which the self-cleavage is 0.176.
Take A4G C20G: the self-cleavage worked out at 0.128.
For the variant C21A U31C, the self-cleavage worked out at 0.153.
As to C21A U31A, the self-cleavage came to 0.0618.
For the variant C26A U37A, the self-cleavage was 0.118.
Regarding C26A G45C, the self-cleavage was found to be 0.123.
The result for C26U G47A reads 0.149.
The result for C5G G48U reads 0.627; that for G13A A30C, 0.771.
Take C8A G28U: the self-cleavage came to 0.22.
Regarding A22U G47A, the self-cleavage came out at 0.582.
C15A G41C: the self-cleavage was determined as 0.16.
Consider C14U G44C, for which the self-cleavage stood at 0.983.
C14A C25U: the self-cleavage was determined as 0.699.
With U6A A32U, the self-cleavage is 0.862.
As for A2U C15U, the self-cleavage is 0.531.
The result for C25A G28A reads 0.166; that for A30U G43C, 0.229; that for G29U G36A, 0.481.
As to A23U A33U, the self-cleavage worked out at 0.307.
The result for U18A G36A reads 0.111; that for A32U U37A, 0.74; that for G13C C25A, 0.0747.
As for C21G C25G, the self-cleavage was found to be 0.0701.
On to C5A A10U, for which the self-cleavage is 0.39.
Under A11C G29A stands 0.531; under A11U C46A, 0.93; under A4U C25G, 0.0782.
Take G24U G47A: the self-cleavage stood at 0.094.
For C9G G16A, the self-cleavage was 0.329.
Regarding C8U C19A, the self-cleavage is 0.0797.
Take U12C A34U: the self-cleavage came to 0.886.
In the case of A30G A40U, the self-cleavage was 0.0959.
Take A23U A30G: the self-cleavage was 0.506.
Turning to A4G G28C, the self-cleavage was found to be 0.529.
The result for G24C A34C reads 0.0955; that for A32G A35G, 0.718.
Take C20G G39C: the self-cleavage was 0.0945.
In the case of A1G A11C, the self-cleavage came out at 0.349.
Under A40C G48A stands 0.192; under A1G A22U, 0.255.
Consider C8A U37G, for which the self-cleavage turned out to be 0.3.
As for G16U A23U, the self-cleavage was 0.238.
On to U6G G39C, for which the self-cleavage turned out to be 0.124.
In the case of G7C G38C, the self-cleavage worked out at 0.0787.
Regarding C5A C21U, the self-cleavage is 0.0869.
Take G17C G47C: the self-cleavage worked out at 0.142.
On to C19U G36U, for which the self-cleavage was 0.127.
The result for C26U A40U reads 0.131; that for G16U A32G, 1.02.
Under C8G U18G stands 0.0605.
In the case of C19U C46G, the self-cleavage is 0.929.
The result for C14G C20G reads 0.111; that for C9A G16C, 0.087.
In the case of G29C G39C, the self-cleavage stood at 0.14.
Consider A30C A40U, for which the self-cleavage stood at 0.0909.
Regarding C15A G47C, the self-cleavage was 0.253.
Regarding G29C G41U, the self-cleavage is 0.125.
For U6A A10U, the self-cleavage was found to be 1.
For G45A C46G, the self-cleavage is 0.856.
Consider C21A G45U, for which the self-cleavage was found to be 0.121.
The result for G17A U31C reads 0.746; that for C8U G24C, 0.0664; that for A11G A23U, 0.614.
As to C14G G42U, the self-cleavage worked out at 0.0931.
Turning to C9U G41A, the self-cleavage was determined as 0.121.
Under G16U C25G stands 0.154; under A11G G42C, 0.455.
As to C21A G43U, the self-cleavage was determined as 0.0849.
On to U31A G39C, for which the self-cleavage was found to be 0.151.
Consider G16C U37A, for which the self-cleavage was found to be 0.165.
With C3U C14G, the self-cleavage is 0.0572.
Turning to U6A C46U, the self-cleavage stood at 1.04.
As for A1G G38U, the self-cleavage came to 0.211.
For the variant G7U U12G, the self-cleavage was found to be 0.208.
On to C8A C21U, for which the self-cleavage was 0.107.
U6G G36U: the self-cleavage was 0.0341.
Take C20G C27U: the self-cleavage turned out to be 0.0791.
Turning to C26U G44C, the self-cleavage was determined as 0.172.
Regarding G7A C46A, the self-cleavage was 0.354.
As to A4C A33C, the self-cleavage was 0.108.
With A2C G39A, the self-cleavage amounted to 0.0656.
Turning to U18A G24C, the self-cleavage is 0.0951.
On to G13A A23G, for which the self-cleavage was 0.0799.
Under C21U G39C stands 0.114; under C8A C20G, 0.0882.
For A4C C20G, the self-cleavage amounted to 0.0372.
For the variant G16U G36A, the self-cleavage came to 0.426.
Consider G28C A34U, for which the self-cleavage is 0.567.
As for G24C A33U, the self-cleavage worked out at 0.0768.
As for U12G A22G, the self-cleavage worked out at 0.316.
A32C A33U: the self-cleavage stood at 0.865.
As for A10G A32G, the self-cleavage worked out at 1.15.
Take C14G C25A: the self-cleavage was 0.0733.
As for A2U G29C, the self-cleavage came out at 0.195.
With G24U G39U, the self-cleavage is 0.0828.
Under C5G G29C stands 0.306; under C14A A22C, 1.09.
As for A4G G7C, the self-cleavage came out at 0.0363.
Take A35G G39U: the self-cleavage came out at 0.18.
On to C20U A23G, for which the self-cleavage amounted to 0.121.
On to C25A A32G, for which the self-cleavage was found to be 0.0602.
On to A11G G39U, for which the self-cleavage amounted to 0.224.
Regarding G13U A40U, the self-cleavage worked out at 0.16.
For C15A G43A, the self-cleavage was determined as 0.299.
The result for U18A A40U reads 0.147.
The result for C19U A32C reads 1.05.
Under A2C A35U stands 0.0477.
For C15G G44C, the self-cleavage came to 0.0763.
In the case of U6C G43U, the self-cleavage came out at 0.134.
On to C3U U31G, for which the self-cleavage is 0.445.
As to A11U G16U, the self-cleavage was 0.544.
Take C27U G29A: the self-cleavage was determined as 0.687.
Under C19A G29C stands 0.0998.
Regarding G13U G43A, the self-cleavage amounted to 0.143.
For the variant C5U U6G, the self-cleavage is 0.261.
Under C20G G47U stands 0.131; under U12G C15A, 0.614; under U6C U18C, 0.0688.
As for C3A G44A, the self-cleavage turned out to be 0.221.
Under C26U U31C stands 0.495; under A4U G29U, 0.094.
With G13C G17U, the self-cleavage worked out at 0.114.
A10C A33C: the self-cleavage is 1.14.
In the case of U31A G47C, the self-cleavage was determined as 0.391.
As to G28U G44A, the self-cleavage came out at 0.718.
G42C G47C: the self-cleavage is 0.467.
The result for A1U U6C reads 0.0726; that for A1G C25U, 0.222.
Turning to G7U G41C, the self-cleavage was 0.111.
The result for C5A A11G reads 0.479; that for G24U A32U, 0.0649; that for G17A G43U, 0.123.
U6G: the self-cleavage is 0.486.
